Target: agalacto-IgG (human IgG treated with streptococcal beta-galactosidase and sialidase, Preparation Example 1)
Test: sandwich ELISA of Example 3, agalacto-IgG 2.5 µg/ml, competitor GlcNAc 50 mM (a monosaccharide)

- percent inhibition in the presence of 50 mM GlcNAc: 50%
Substance: Psathyrella velutina lectin (PVL), purified from Psathyrella velutina fruiting body
